Results reported in paper PMC11907795.

Target: PthA4-His (Xanthomonas citri subsp. citri (strain …, UniProt A0AAI8ETU3 1-1163))
Test: EMSA; poly dI-dC; unlabeled competitor 1x-800x
Settings: protein: recombinant; tags: His (N-terminal, pET28a); label: Cy5; blunt

B1: ProCsGRAS9 (dsDNA)
DNA 1: TATATACATACACACACACACACACACACATAT
DNA 2: ATATGTGTGTGTGTGTGTGTGTGTATGTATATA
  binding result: binds
